Test results as given in article PMC10008561.

How the values were obtained:
human KOR L253A (human) = human KOR L253A (human) (UniProt P41145)
human KOR R170A (human) = human KOR R170A (human) (UniProt P41145)
human KOR D155A (human) = human KOR D155A (human) (UniProt P41145)
human KOR R257A (human) = human KOR R257A (human) (UniProt P41145)

Sequence of GαoA fused with Renilla luciferase (Gα-RLuc8) (P09471 whole entry, the tested form may be a part): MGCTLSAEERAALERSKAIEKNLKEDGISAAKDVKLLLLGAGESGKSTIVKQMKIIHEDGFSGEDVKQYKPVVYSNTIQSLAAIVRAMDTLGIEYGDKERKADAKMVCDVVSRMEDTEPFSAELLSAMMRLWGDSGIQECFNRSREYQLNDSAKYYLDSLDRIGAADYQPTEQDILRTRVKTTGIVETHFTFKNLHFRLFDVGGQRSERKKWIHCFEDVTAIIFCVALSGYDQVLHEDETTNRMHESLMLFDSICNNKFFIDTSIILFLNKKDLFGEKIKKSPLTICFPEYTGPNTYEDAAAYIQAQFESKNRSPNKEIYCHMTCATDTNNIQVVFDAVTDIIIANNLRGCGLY
Sequence of Gαz fused with Renilla luciferase (Gα-RLuc8) (P19086 whole entry, the tested form may be a part): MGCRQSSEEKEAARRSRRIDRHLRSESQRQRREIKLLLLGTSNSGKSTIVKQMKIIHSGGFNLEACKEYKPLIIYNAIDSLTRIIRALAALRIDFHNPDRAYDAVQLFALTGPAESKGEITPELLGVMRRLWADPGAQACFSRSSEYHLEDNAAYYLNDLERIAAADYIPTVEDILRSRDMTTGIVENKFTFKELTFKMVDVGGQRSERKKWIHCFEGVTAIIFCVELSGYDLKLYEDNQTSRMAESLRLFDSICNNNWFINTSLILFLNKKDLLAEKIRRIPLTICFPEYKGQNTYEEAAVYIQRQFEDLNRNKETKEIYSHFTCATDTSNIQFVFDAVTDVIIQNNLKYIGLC
Sequence of Gαi2 fused with Renilla luciferase (Gα-RLuc8) (P04899 whole entry, the tested form may be a part): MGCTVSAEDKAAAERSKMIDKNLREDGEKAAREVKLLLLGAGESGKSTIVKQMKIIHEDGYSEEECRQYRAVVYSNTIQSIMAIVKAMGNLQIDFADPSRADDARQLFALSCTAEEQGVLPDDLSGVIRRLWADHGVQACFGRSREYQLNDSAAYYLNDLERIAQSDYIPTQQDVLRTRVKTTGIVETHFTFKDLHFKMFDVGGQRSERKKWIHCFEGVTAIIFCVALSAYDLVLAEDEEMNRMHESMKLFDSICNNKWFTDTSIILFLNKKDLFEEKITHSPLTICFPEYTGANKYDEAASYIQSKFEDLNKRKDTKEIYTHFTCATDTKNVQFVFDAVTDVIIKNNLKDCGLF
Sequence of GαoB fused with Renilla luciferase (Gα-RLuc8) (P09471 other isoform, or with tags, fused parts or gaps): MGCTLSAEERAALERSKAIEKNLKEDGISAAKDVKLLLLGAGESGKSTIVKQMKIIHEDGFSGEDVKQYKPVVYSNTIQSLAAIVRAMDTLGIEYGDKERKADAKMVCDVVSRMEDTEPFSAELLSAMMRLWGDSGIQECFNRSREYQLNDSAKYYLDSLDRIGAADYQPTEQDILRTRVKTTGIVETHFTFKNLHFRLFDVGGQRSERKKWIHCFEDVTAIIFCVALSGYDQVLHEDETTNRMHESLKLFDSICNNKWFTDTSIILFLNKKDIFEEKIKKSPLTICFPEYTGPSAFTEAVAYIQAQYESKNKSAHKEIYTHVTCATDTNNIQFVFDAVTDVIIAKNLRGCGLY
Sequence of Gα gustducin fused with Renilla luciferase (Gα-RLuc8) (A8MTJ3 whole entry, the tested form may be a part): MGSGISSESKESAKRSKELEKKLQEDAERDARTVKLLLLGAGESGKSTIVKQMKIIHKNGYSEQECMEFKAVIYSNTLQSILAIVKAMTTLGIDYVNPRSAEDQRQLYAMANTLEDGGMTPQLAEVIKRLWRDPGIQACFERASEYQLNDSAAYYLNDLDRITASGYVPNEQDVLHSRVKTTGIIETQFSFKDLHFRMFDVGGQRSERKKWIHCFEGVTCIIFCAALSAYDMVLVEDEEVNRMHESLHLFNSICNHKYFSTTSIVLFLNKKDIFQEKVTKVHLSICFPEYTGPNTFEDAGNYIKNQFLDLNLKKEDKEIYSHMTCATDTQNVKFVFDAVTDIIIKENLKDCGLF
Sequence of Gαi3 fused with Renilla luciferase (Gα-RLuc8) (P08754 whole entry, the tested form may be a part): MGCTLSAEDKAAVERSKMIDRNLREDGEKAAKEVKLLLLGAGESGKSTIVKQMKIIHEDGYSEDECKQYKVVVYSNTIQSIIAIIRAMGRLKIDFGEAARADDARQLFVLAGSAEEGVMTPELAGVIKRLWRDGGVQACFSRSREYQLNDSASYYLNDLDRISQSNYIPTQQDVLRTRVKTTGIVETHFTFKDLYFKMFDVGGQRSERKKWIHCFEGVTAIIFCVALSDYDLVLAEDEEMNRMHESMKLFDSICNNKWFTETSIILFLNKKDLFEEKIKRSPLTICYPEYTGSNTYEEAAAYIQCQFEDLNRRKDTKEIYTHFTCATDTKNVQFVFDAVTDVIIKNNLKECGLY

| Substance | BRET2 G protein activation (TRUPATH) with nalfurafine; fold decrease against wild-type KOR (human KOR L253A (human)) | BRET2 G protein activation (TRUPATH); fold decrease of the potency of nalfurafine against wild-type KOR (human KOR R170A (human)) | BRET2 G protein activation (TRUPATH); fold decrease of the potency of nalfurafine against wild-type KOR (human KOR D155A (human)) | BRET2 G protein activation (TRUPATH) with nalfurafine; fold decrease against wild-type KOR (human KOR R257A (human)) |
| --- | --- | --- | --- | --- |
| Gα gustducin fused with Renilla luciferase (Gα-RLuc8) (from UniProt A8MTJ3 1-354) (natural protein) | 10 fold | 10 fold | < 10 fold | 10 fold |
| Gαi2 fused with Renilla luciferase (Gα-RLuc8) (from UniProt P04899 1-355) (natural protein) | 100 fold | 100 fold | < 10 fold | 100 fold |
| Gαi3 fused with Renilla luciferase (Gα-RLuc8) (from UniProt P08754 1-354) (natural protein) | 100 fold | 100 fold | < 10 fold | 100 fold |
| GαoA fused with Renilla luciferase (Gα-RLuc8) (from UniProt P09471 1-354) (natural protein) | 10 fold | 10 fold | < 10 fold | 10 fold |
| GαoB fused with Renilla luciferase (Gα-RLuc8) (from UniProt P09471-2 1-354) (natural protein) | 10 fold | 10 fold | < 10 fold | 10 fold |
| Gαz fused with Renilla luciferase (Gα-RLuc8) (from UniProt P19086 1-355) (natural protein) | 10 fold | 10 fold | < 10 fold | 10 fold |
